In paper PMC11290353:

Molecular target: RNA Pol II large subunit (CTD) (UniProt P08775)
Assay: HA IP; blot Pol II S5P, S2P
Conditions: reference: HA-CMTR1 wild type; sites S26,S28,T30,S31,S46,S49,S51,S53,S55,T57,S63,S64,S66,S75,S89

Substance: CMTR1 (from UniProt Q8N1G2) HA-CMTR1 15A
- binding against the reference: weaker
